Experimental data taken from publication PMC3987992.

Legend:
Assay in all cases: BLI
[1] = target: CR9114 Fab (human)
[2] = target: PGT135 Fab (human)
[3] = target: the same heavy chain paired with four different light chains
[4] = target: four VH/VL combinations (the same germline light chain paired with three different heavy chains)
[5] = target: a panel of eight affinity-matured monoclonal antibodies against the same HIV-1 gp120 antigen but with different epitopes

B1: recombinant Protein M TD, residues 74-468 (domain or fragment)
chain: SLSLNDGSYQSEIDLSGGANFREKFRNFANELSEAITNSPKGLDRPVPKTEISGLIKTGDNFITPSFKAGYYDHVASDGSLLSYYQSTEYFNNRVLMPILQTTNGTLMANNRGYDDVFRQVPSFSGWSNTKATTVSTSNNLTYDKWTYFAAKGSPLYDSYPNHFFEDVKTLAIDAKDISALKTTIDSEKPTYLIIRGLSGNGSQLNELQLPESVKKVSLYGDYTGVNVAKQIFANVVELEFYSTSKANSFGFNPLVLGSKTNVIYDLFASKPFTHIDLTQVTLQNSDNSAIDANKLKQAVGDIYNYRRFERQFQGYFAGGYIDKYLVKNVNTNKDSDDDLVYRSLKELNLHLEEAYREGDNTYYRVNENYYPGASIYENERASRDSEFQNEILKR
Binder B1 has a Kd [1] of 1.9 nM, a Kd [2] of 3.7 nM and a Kd [3] of 1.8 to 2.3 nM. The Kd [4] was 2.1 to 4.8 nM and the Kd [5] was 0.7 to 3.8 nM.
